# Data: paper PMC11580933 (bioRxiv, 2024)
# Where no end group is shown, it is not given here.
# T1: KTN1(991–1357) (human, UniProt Q86UP2 991-1357)
# T1 sequence (looked up): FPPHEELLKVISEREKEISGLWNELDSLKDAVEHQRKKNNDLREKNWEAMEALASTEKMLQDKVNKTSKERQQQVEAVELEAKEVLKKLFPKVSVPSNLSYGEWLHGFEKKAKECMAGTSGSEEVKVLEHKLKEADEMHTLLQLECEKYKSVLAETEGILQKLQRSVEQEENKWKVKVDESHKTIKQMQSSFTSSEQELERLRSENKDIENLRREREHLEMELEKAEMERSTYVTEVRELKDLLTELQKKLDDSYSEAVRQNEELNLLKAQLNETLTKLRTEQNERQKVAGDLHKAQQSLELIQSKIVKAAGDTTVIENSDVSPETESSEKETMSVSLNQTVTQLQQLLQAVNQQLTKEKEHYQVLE
# B1: GST::KIF5C(807–956) (domain or fragment)
# chain: not shown
# B2: GST::DLIC1(388–523) (domain or fragment, human, UniProt Q9Y6G9 388-523, looked up)
# chain: PTAAGRPVDASPRVPGGSPRTPNRSVSSNVASVSPIPAGSKKIDPNMKAGATSEGVLANFFNSLLSKKTGSPGGPGVSGGSPAGGAGGGSSGLPPSTKKSGQKPVLDVHAELDRITRKPVTVSPTTPTSPTEGEAS
# What was measured:
# KTN1(991–1357) [1] = target: T1, KTN1(991–1357); assay: SEC
# KTN1(991–1357) [2] = target: T1, KTN1(991–1357); assay: pull-down
# CDR2(1–146) = CDR2(1–146) (human, UniProt Q01850 1-146); assay: SEC
# Sequence of CDR2(1–146) (Q01850 1-146): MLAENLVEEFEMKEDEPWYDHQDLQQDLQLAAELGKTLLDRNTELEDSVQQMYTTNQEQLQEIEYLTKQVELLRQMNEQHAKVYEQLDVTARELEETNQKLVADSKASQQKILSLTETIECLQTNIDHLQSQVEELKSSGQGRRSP
Binder,binding result (KTN1(991–1357) [1]),other results
"EPVSSPTTPPEYKALFKEIFSCIKKTKQEIDEQRTKYRSLSSHS (domain or fragment, human, UniProt Q01850 411-454, looked up) [GST::CDR2(411–454)]",binds,–
"{GST}-NGPVAGASRQENGASVILRDIARARENIQKSLAGSSG (domain or fragment, human, UniProt P29692 30-66, looked up) [GST::eEF1Bβ(30–66)]",binds,–
B1,–,binding result (KTN1(991–1357) [2]): binds
B2,–,binding result (CDR2(1–146)): binds
